Results on six molecules are retold here after patent publication US20170281792A1 (Genentech, published 2017).

Experiment [1] concerns the target T1, gD epitope-tagged cynomolgus monkey mesothelin expressed on cells (construct #383) (cynomolgus monkey).
T1 construct: also called cyno mesothelin
T1 chain: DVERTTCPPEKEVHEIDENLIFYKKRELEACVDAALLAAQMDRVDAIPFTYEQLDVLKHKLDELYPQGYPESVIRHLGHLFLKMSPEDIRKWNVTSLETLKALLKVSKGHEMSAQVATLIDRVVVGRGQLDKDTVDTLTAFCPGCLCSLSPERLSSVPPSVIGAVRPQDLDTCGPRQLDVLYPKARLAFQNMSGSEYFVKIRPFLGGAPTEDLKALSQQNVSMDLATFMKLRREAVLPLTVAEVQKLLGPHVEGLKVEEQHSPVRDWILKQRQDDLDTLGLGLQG
The experiment in a line: Scatchard analysis on BJAB cells stably expressing gD-tagged cyno mesothelin.

Experiment [2] has as its target T2, gD epitope-tagged rat mesothelin expressed on cells (rat, UniProt Q9ERA7 298-582).
T2 sequence: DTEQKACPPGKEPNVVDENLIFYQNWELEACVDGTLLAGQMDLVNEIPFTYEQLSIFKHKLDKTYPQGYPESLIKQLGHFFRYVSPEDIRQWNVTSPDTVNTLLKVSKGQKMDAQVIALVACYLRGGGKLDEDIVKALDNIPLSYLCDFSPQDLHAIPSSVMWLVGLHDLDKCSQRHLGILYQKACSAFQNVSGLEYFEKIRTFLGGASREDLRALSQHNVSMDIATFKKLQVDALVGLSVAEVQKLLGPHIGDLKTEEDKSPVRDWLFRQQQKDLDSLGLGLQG
Description: Scatchard analysis on BJAB cells stably expressing gD-tagged rat mesothelin.

In experiment [3] the target is T3, endogenous rat mesothelin on the normal pleural cell line 4/4-RM4 (rat, UniProt Q9ERA7 298-582).
T3 sequence: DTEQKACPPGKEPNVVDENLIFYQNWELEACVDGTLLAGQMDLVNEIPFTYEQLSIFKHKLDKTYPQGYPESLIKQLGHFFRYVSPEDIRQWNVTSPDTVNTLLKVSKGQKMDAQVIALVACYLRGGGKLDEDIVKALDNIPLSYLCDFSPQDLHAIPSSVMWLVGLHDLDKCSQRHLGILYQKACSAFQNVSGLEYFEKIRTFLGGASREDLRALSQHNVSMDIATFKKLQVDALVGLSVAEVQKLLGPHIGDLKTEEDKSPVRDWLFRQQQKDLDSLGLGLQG
The experiment in a line: Scatchard on the normal rat pleural cell line 4/4-RM4. As for the experimental part: (§1) The data was analyzed with non-linear regression curve fitting in the New Ligand program (Genentech, Inc., South San Francisco, Calif.) to estimate Kd values (Munson et al., Anal. Biochem., 107 220-239 (1980)).

Experiment [4] addresses T4, gD epitope-tagged human mesothelin expressed on cells (construct #387) (human, UniProt Q13421 296-580).
T4 construct: also called gD-human mesothelin; gD-tagged human mesothelin
The experiment in a line: Scatchard, 125I-labelled antibody on stably transfected BJAB cells. As for the experimental part:
as §1

Experiment [5] addresses T2, gD epitope-tagged rat mesothelin …. Described as above. How it is done:
as §1

Experiment [6] concerns the target T1, gD epitope-tagged cynomolgus monkey …. Description: Scatchard analysis (125I-labelled antibody), row 'Cyno 293', stably transfected cells. How it is done:
as §1

In experiment [7] the target is T5, human mesothelin on cells (endogenous on tumour cell lines and tissue, or stably expressed on A431 or HT1080 … (human, UniProt Q13421 296-580)).
T5 construct: also called endogenous mesothelin; endogenous human mesothelin
T5 sequence (Q13421 other isoform, or with tags, fused parts or gaps): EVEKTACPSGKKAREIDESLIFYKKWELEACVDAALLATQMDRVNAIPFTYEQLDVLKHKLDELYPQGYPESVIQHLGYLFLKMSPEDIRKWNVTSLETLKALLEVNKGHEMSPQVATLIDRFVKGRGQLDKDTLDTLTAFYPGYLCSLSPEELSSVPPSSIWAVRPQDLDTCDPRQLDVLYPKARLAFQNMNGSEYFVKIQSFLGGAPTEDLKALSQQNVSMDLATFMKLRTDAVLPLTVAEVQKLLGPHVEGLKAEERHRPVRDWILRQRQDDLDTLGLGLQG
Description: Scatchard analysis (125I-labelled antibody) on AsPC1 cells, endogenous mesothelin. As for the experimental part:
as §1

The target in experiment [8] is T6, gD epitope-tagged mouse mesothelin expressed on cells (construct #385) (mouse, UniProt Q61468 298-582).
T6 sequence: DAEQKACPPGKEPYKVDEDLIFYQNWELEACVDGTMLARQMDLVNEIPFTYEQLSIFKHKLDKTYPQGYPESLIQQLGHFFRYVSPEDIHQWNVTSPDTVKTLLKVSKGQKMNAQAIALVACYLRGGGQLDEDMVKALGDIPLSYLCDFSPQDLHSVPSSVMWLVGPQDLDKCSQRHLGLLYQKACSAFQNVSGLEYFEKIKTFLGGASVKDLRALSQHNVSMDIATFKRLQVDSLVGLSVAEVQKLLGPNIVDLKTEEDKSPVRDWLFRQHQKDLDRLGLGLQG
The experiment in a line: FACS on stably transfected 293 cells. How it is done:
Monoclonal antibodies were tested to determine if they cross-react with mesothelin from species other than human. […] Shaded residues are identical between at least two species. Unshaded residues differ between at least two of the four species. […] Anti-gD staining verified that mouse mesothelin was indeed expressed.

Experiment [9] deals with T1, gD epitope-tagged cynomolgus monkey …. The experiment in a line: Scatchard analysis (125I-labelled antibody), row 'Cyno HT1080', stably transfected cells. How it is done:
as §1

The target of experiment [10] is T5, human mesothelin on cells (endogenous …). The experiment in a line: Scatchard analysis (125I-labelled antibody) on OvCar3 cells, endogenous mesothelin. As for the experimental part: as §1
For experiment [11] the target is unchanged. The experiment in a line: Scatchard analysis (125I-labelled antibody) on HPAC cells, endogenous mesothelin. How it is done: as §1
The target is the same in experiment [12]. Description: Scatchard analysis (125I-labelled antibody) on OvCar3x2.1 cells, endogenous mesothelin. As for the experimental part:
as §1

For experiment [13] the target is unchanged. The experiment in a line: Scatchard analysis (125I-labelled antibody) on Capan2 cells, endogenous mesothelin. How it is done:
as §1

In experiment [14] the target is T4, gD epitope-tagged human mesothelin …. The experiment in a line: Scatchard, 125I-labelled antibody on stably transfected 293 cells. As for the experimental part: as §1
Experiment [15] deals with T2, gD epitope-tagged rat mesothelin …. The experiment is described as above. How it is done:
as §1

Experiment [16] deals with T5, human mesothelin on cells (endogenous …). Description: Scatchard analysis (125I-labelled antibody) on HPAF-II cells, endogenous mesothelin. As for the experimental part:
as §1

Experiment [17] deals with T4, gD epitope-tagged human mesothelin …. Description: Scatchard, 125I-labelled antibody on stably transfected HT1080 cells. As for the experimental part: as §1
The target of experiment [18] is T5, human mesothelin on cells (endogenous …). The experiment in a line: Scatchard; endogenous human mesothelin on cell lines. How it is done: as §1
Experiment [19] deals with T1, gD epitope-tagged cynomolgus monkey …. Description: Scatchard analysis (125I-labelled antibody), row 'Cyno BJAB', stably transfected cells. As for the experimental part:
as §1

The target in experiment [20] is T7, E. coli derived recombinant human mesothelin (human, UniProt Q13421 296-580).
T7 construct: not shown: N-terminal unizyme His (HQ)-tag
T7 sequence (Q13421 other isoform, or with tags, fused parts or gaps): as the sequence (Q13421 other isoform, or with tags, fused parts or gaps) above
The experiment in a line: Biacore-2000, IgG over immobilised E. coli derived human mesothelin, 1:1 fit. How it is done: (§2) 7D9 variants were expressed as IgG by CHO transient transfection. IgG was purified with protein G affinity chromatography. The affinity of each 7D9 IgG variant for human mesothelin was determined by surface plasmon resonance using a BIACORE™-2000. BIACORE™ research grade CM5 chips were immobilized with approximately 110 RU of E. coli derived recombinant human mesothelin using the amine coupling kit from BIACORE™. […] Each sample was analyzed with 5-minute association and 3.5-minute dissociation. After each injection the chip was regenerated using 10 mM Glycine pH 1.7. Binding response was corrected by subtracting the RU from a flow cell with an irrelevant IgG immobilized at similar density. A 1:1 Languir model of simultaneous fitting of kₒₙ and koff was used for kinetics analysis.

Experiment [21] concerns the target T7, E. coli derived recombinant human …. The experiment in a line: SPR (Biacore), IgG over immobilized E. coli derived human mesothelin. As for the experimental part:
as §2
The human acceptor framework used for humanization of 7D9 is based on the human VL kappa I consensus (VLKI) and the acceptor VH framework VHATA, which differs from the human VH subgroup III consensus (VHIII) at 3 positions: R71A, N73T, and L78A (Carter et al., Proc. Natl. Acad. Sci. USA 89:4285 (1992)). The VL and VH domains of murine 7D9 were aligned with the human VLKI and VHIII domains; hypervariable regions were identified and grafted into the human acceptor framework to generate 7D9.v1 (FIGS. 4 and 5).

T4 sequence (Q13421 other isoform, or with tags, fused parts or gaps): as the sequence (Q13421 other isoform, or with tags, fused parts or gaps) above

B1: 22A10 graft (antibody, V domains shown)
VH: EVQLVESGGGLVQPGGSLRLSCAASGFTFSDYFMSWVRQAPGKGLEWVATISNGGTYTYYPDSVKGRFTISRDNSKNTLYLQMNSLRAEDTAVYYCARFDGYYFDYWGQGTLVTVSS
VL: DIQMTQSPSSLSASVGDRVTITCRASQDISNYLNWYQQKPGKAPKLLIYYTSRLHSGVPSRFSGSGSGTDFTLTISSLQPEDFATYYCQQGNTLPYTFGQGTKVEIK
notes: also called hu22A10graft; 22A10 CDR graft
As to B1, the Kd in experiment [1] amounted to 1 nM; in [2], 1.9 nM.

B2: humanized monoclonal antibody 22A10.v83 (antibody, V domains shown)
VH: EVQLVESGGGLVQPGGSLRLSCAASGFTFSDYFMSWVRQAPGKGLEWVATISNGGTYTYYPDSVKGRFTISRDNSKNTLYLQMNSLRAEDTAVYYCARFDGYIFDYWGQGTLVTVSS
VL: DIQMTQSPSSLSASVGDRVTITCRASQDISNYLNWYQQKPGKAPKLLIYYTSRLHSGVPSRFSGSGSGTDFTLTISSLQPEDFATYYCQQGNTLPYTFGQGTKVEIKR
notes: also called h22A10.v83; hu22A10.v83
As for B2, the Kd in experiment [3] was found to be 6.2 nM; in experiment [1] it was 1.3 nM; in [4] it was 1.8 nM; in experiment [5] it was 2.7 nM; in experiment [6], 4.3 nM; in [7], 9.3 nM. Also, the Kd in [9] was 6.4 nM; in [10], 9.2 nM; in [11] it was 9.4 nM; in experiment [12], 9 nM; in experiment [13], 4.2 nM; in [14] it was 2.7 nM. For the same molecule, the Kd in experiment [15] is 7.3 nM; in [16] it was 10.4 nM; in experiment [17], 6.2 nM; in [18] it was 9 to 10 nM; in [19] it was 1.3 nM. The binding result in [8] is on record as “no binding (tested: 10 µg/ml)”.

B3: 7D9.v5 (antibody, V domains shown)
VH: EVQLVESGGGLVQPGGSLRLSCAASGYTFTTYWMHWVRQAPGKGLEWVGYIRPSTGYTEYNQKFKDRFTISADTSKNTAYLQMNSLRAEDTAVYYCARSRWLLDYWGQGTLVTVS
VL: DIQMTQSPSSLSASVGDRVTITCKSSQSVLYSSNQKNYLAWFQQKPGKAPKLLIYWASTRESGVPSRFSGSGSGTDFTLTISSLQPEDFATYYCHQYLSSYTFGQGTKVEIK
Consider B3, for which the Kd in experiment [20] came to 3.49 nM.

B4: 7D9.v1 (antibody, V domains shown)
VH: EVQLVESGGGLVQPGGSLRLSCAASGYTFTTYWMHWVRQAPGKGLEWVGYIRPSTGYTEYNQKFKDRFTISADTSKNTAYLQMNSLRAEDTAVYYCARSRWLLDYWGQGTLVTVS
VL: DIQMTQSPSSLSASVGDRVTITCKSSQSVLYSSNQKNYLAWYQQKPGKAPKLLIYWASTRESGVPSRFSGSGSGTDFTLTISSLQPEDFATYYCHQYLSSYTFGQGTKVEIK
notes: also called direct-graft 7D9.v1
Turning to B4, the Kd in experiment [20] was found to be 3.98 nM. Besides, the “fold decrease in affinity relative to mu7D9 (chimeric 7D9)” value in experiment [21] is about 2 fold.

B5: 7D9.v6 (antibody, V domains shown)
VH: EVQLVESGGGLVQPGGSLRLSCAASGYTFTTYWMHWVRQAPGKGLEWVGYIRPSTGYTEYNQKFKDRFTISADTSKNTAYLQMNSLRAEDTAVYYCARSRWLLDYWGQGTLVTVS
VL: DIQMTQSPSSLSASVGDRVTITCKSSQSVLYSSNQKNYLAWYQQKPGKAPKLLIYWASTRESGVPSRFSGSGSGTDFTLTISSLQPEDFATYFCHQYLSSYTFGQGTKVEIK
With B5, in experiment [20], the Kd was 4.08 nM.

B6: chimeric 7D9 (antibody, V domains shown)
VH: QVQLQQSGAELAKPGASVKMSCKASGYTFTTYWMHWVKQRPGQGLEWIGYIRPSTGYTEYNQKFKDKATLTADKSSSTAYMQLSSLTSEDSTVYYCARSRWLLDYWGQGTSLTVS
VL: DIMMTQSPSSLAVSAGEKVTMSCKSSQSVLYSSNQKNYLAWFQQKPGQSPKLLIYWASTRESGVPDRFTGSGSGTDFTLTISSVQAEDLAVYFCHQYLSSYTFGGGTKVEIK
notes: also called ch7D9; mu7D9 (formatted as a chimeric 7D9)
B6: the Kd in experiment [20] came to 1.84 nM.
